Data: patent US9512459B2 (priority 2011, dated 2016)

Substrate: OC[C@H]1OC(O)[C@H](O)[C@@H](O)[C@@H]1O
Test: cells, lysate or membranes named
Type: biochemical, Aspergillus niger
Conditions: crude enzyme, glucose 1-40 mM, pH 6.5, DCIP/PMS

Protein | Km (other: 60 ml culture, 20.0 °C) [mM] | Vmax (other: 60 ml culture, 20.0 °C) [µmol/min/mg] | Km (other: 3 ml culture) [mM] | Vmax (other: 3 ml culture) [U/mg protein]
Aspergillus niger glucose dehydrogenase (FAD-GDH) Ang-n2 variant T522S, SEQ ID NO: 2 (Aspergillus niger CBS 513.88; T522S) (protein, pET30c, E. coli BL21(DE3), crude extract) YDFVIVGGGTSGLVVANRLSELSDVTVAVIEAGESALNNFNVSNVMGYSTAFGTEVDWAYQTENQTYAGGLQQTIRAGKALGGTSTINGMSYTRAEDVQIDNWEVLGNDGWNWKNLFQYYKKSEGFQVPTKDQIAHGASYNASYHGLNGPLKVGWPNSMTNSSVFPVLEQTFEKLGVQYNPDSEGGKMVGFTVHPDTLDREMNVREDAARAYYWPYEARSNLKIISNTRANKVIWANTTQGEAVAVGIEVTNAYGTETIYADKEVILSAGALRSPAILELSGIGNPDVLNKHNIPVKVNITTVGENLQDQTNNALSWEGVDTLTGLATFSVLPSVNQLYGDNVTALASYVKSQLASYAKTVASASNGAVKEANLVEAFERQYDLIFNSQVPYTEVVFAPSGNSFAVEYWPLLPFSRGSVHIQSANASDYPAINPNYFMFDQDAEAQVTVAQYIRKALGTAPLNSLVGEEVSPGLDVLPASASSATWTKWVKENYRSNYHPVGTTSMLPREKGGVVSPELKVYGTKNVRVVDASVLPFQLCGHLTSTLYAVAERASDLIKESY | 2.5 | 3.4 | – | –
Aspergillus niger glucose dehydrogenase (FAD-GDH) Ang-n2 variant N368K/T522S, SEQ ID NO: 2 (Aspergillus niger CBS 513.88; N368K/T522S) (protein, pET30c, E. coli BL21(DE3), crude extract) YDFVIVGGGTSGLVVANRLSELSDVTVAVIEAGESALNNFNVSNVMGYSTAFGTEVDWAYQTENQTYAGGLQQTIRAGKALGGTSTINGMSYTRAEDVQIDNWEVLGNDGWNWKNLFQYYKKSEGFQVPTKDQIAHGASYNASYHGLNGPLKVGWPNSMTNSSVFPVLEQTFEKLGVQYNPDSEGGKMVGFTVHPDTLDREMNVREDAARAYYWPYEARSNLKIISNTRANKVIWANTTQGEAVAVGIEVTNAYGTETIYADKEVILSAGALRSPAILELSGIGNPDVLNKHNIPVKVNITTVGENLQDQTNNALSWEGVDTLTGLATFSVLPSVNQLYGDKVTALASYVKSQLASYAKTVASASNGAVKEANLVEAFERQYDLIFNSQVPYTEVVFAPSGNSFAVEYWPLLPFSRGSVHIQSANASDYPAINPNYFMFDQDAEAQVTVAQYIRKALGTAPLNSLVGEEVSPGLDVLPASASSATWTKWVKENYRSNYHPVGTTSMLPREKGGVVSPELKVYGTKNVRVVDASVLPFQLCGHLTSTLYAVAERASDLIKESY | 3.4 | 5.3 | – | –
Aspergillus niger glucose dehydrogenase (FAD-GDH) Ang-n2 variant E195K/Q196E/G73A, SEQ ID NO: 2 (Aspergillus niger CBS 513.88; E195K/G73A/Q196E) (protein, E. coli BL21(DE3), crude extract, small-scale culture) YDFVIVGGGTSGLVVANRLSELSDVTVAVIEAGESALNNFNVSNVMAYSTAFGTEVDWAYQTENQTYAGGLQQTIRAGKALGGTSTINGMSYTRAEDVQIDNWEVLGNDGWNWKNLFQYYKKSEGFQVPTKDQIAHGASYNASYHGLNGPLKVGWPNSMTNSSVFPVLKETFEKLGVQYNPDSEGGKMVGFTVHPDTLDREMNVREDAARAYYWPYEARSNLKIISNTRANKVIWANTTQGEAVAVGIEVTNAYGTETIYADKEVILSAGALRSPAILELSGIGNPDVLNKHNIPVKVNITTVGENLQDQTNNALSWEGVDTLTGLATFSVLPSVNQLYGDNVTALASYVKSQLASYAKTVASASNGAVKEANLVEAFERQYDLIFNSQVPYTEVVFAPSGNSFAVEYWPLLPFSRGSVHIQSANASDYPAINPNYFMFDQDAEAQVTVAQYIRKALGTAPLNSLVGEEVSPGLDVLPASASSATWTKWVKENYRTNYHPVGTTSMLPREKGGVVSPELKVYGTKNVRVVDASVLPFQLCGHLTSTLYAVAERASDLIKESY | – | – | 5.5 | 5.0
Aspergillus niger glucose dehydrogenase (FAD-GDH) Ang-n3 variant E195K/Q196E, SEQ ID NO: 2 (Aspergillus niger CBS 513.88; E195K/Q196E) (protein, pET30c, E. coli BL21(DE3), dialysed crude enzyme) YDFVIVGGGTSGLVVANRLSELSDVTVAVIEAGESALNNFNVSNVMGYSTAFGTEVDWAYQTENQTYAGGLQQTIRAGKALGGTSTINGMSYTRAEDVQIDNWEVLGNDGWNWKNLFQYYKKSEGFQVPTKDQIAHGASYNASYHGLNGPLKVGWPNSMTNSSVFPVLKETFEKLGVQYNPDSEGGKMVGFTVHPDTLDREMNVREDAARAYYWPYEARSNLKIISNTRANKVIWANTTQGEAVAVGIEVTNAYGTETIYADKEVILSAGALRSPAILELSGIGNPDVLNKHNIPVKVNITTVGENLQDQTNNALSWEGVDTLTGLATFSVLPSVNQLYGDNVTALASYVKSQLASYAKTVASASNGAVKEANLVEAFERQYDLIFNSQVPYTEVVFAPSGNSFAVEYWPLLPFSRGSVHIQSANASDYPAINPNYFMFDQDAEAQVTVAQYIRKALGTAPLNSLVGEEVSPGLDVLPASASSATWTKWVKENYRTNYHPVGTTSMLPREKGGVVSPELKVYGTKNVRVVDASVLPFQLCGHLTSTLYAVAERASDLIKESY | 2.2 | 4.5 | – | –
Aspergillus niger glucose dehydrogenase (FAD-GDH) Ang-n2 variant N368K, SEQ ID NO: 2 (Aspergillus niger CBS 513.88; N368K) (protein, pET30c, E. coli BL21(DE3), crude extract) YDFVIVGGGTSGLVVANRLSELSDVTVAVIEAGESALNNFNVSNVMGYSTAFGTEVDWAYQTENQTYAGGLQQTIRAGKALGGTSTINGMSYTRAEDVQIDNWEVLGNDGWNWKNLFQYYKKSEGFQVPTKDQIAHGASYNASYHGLNGPLKVGWPNSMTNSSVFPVLEQTFEKLGVQYNPDSEGGKMVGFTVHPDTLDREMNVREDAARAYYWPYEARSNLKIISNTRANKVIWANTTQGEAVAVGIEVTNAYGTETIYADKEVILSAGALRSPAILELSGIGNPDVLNKHNIPVKVNITTVGENLQDQTNNALSWEGVDTLTGLATFSVLPSVNQLYGDKVTALASYVKSQLASYAKTVASASNGAVKEANLVEAFERQYDLIFNSQVPYTEVVFAPSGNSFAVEYWPLLPFSRGSVHIQSANASDYPAINPNYFMFDQDAEAQVTVAQYIRKALGTAPLNSLVGEEVSPGLDVLPASASSATWTKWVKENYRTNYHPVGTTSMLPREKGGVVSPELKVYGTKNVRVVDASVLPFQLCGHLTSTLYAVAERASDLIKESY | 4.6 | 0.7 | – | –
Aspergillus niger glucose dehydrogenase (FAD-GDH) Ang-n2 variant E195K/Q196D, SEQ ID NO: 2 (Aspergillus niger CBS 513.88; E195K/Q196D) (protein, pET30c, E. coli BL21(DE3), crude extract) YDFVIVGGGTSGLVVANRLSELSDVTVAVIEAGESALNNFNVSNVMGYSTAFGTEVDWAYQTENQTYAGGLQQTIRAGKALGGTSTINGMSYTRAEDVQIDNWEVLGNDGWNWKNLFQYYKKSEGFQVPTKDQIAHGASYNASYHGLNGPLKVGWPNSMTNSSVFPVLKDTFEKLGVQYNPDSEGGKMVGFTVHPDTLDREMNVREDAARAYYWPYEARSNLKIISNTRANKVIWANTTQGEAVAVGIEVTNAYGTETIYADKEVILSAGALRSPAILELSGIGNPDVLNKHNIPVKVNITTVGENLQDQTNNALSWEGVDTLTGLATFSVLPSVNQLYGDNVTALASYVKSQLASYAKTVASASNGAVKEANLVEAFERQYDLIFNSQVPYTEVVFAPSGNSFAVEYWPLLPFSRGSVHIQSANASDYPAINPNYFMFDQDAEAQVTVAQYIRKALGTAPLNSLVGEEVSPGLDVLPASASSATWTKWVKENYRTNYHPVGTTSMLPREKGGVVSPELKVYGTKNVRVVDASVLPFQLCGHLTSTLYAVAERASDLIKESY | 2.9 | 5.1 | – | –
Aspergillus niger glucose dehydrogenase (FAD-GDH) Ang-n2 variant E195K/Q196R, SEQ ID NO: 2 (Aspergillus niger CBS 513.88; E195K/Q196R) (protein, pET30c, E. coli BL21(DE3), crude extract) YDFVIVGGGTSGLVVANRLSELSDVTVAVIEAGESALNNFNVSNVMGYSTAFGTEVDWAYQTENQTYAGGLQQTIRAGKALGGTSTINGMSYTRAEDVQIDNWEVLGNDGWNWKNLFQYYKKSEGFQVPTKDQIAHGASYNASYHGLNGPLKVGWPNSMTNSSVFPVLKRTFEKLGVQYNPDSEGGKMVGFTVHPDTLDREMNVREDAARAYYWPYEARSNLKIISNTRANKVIWANTTQGEAVAVGIEVTNAYGTETIYADKEVILSAGALRSPAILELSGIGNPDVLNKHNIPVKVNITTVGENLQDQTNNALSWEGVDTLTGLATFSVLPSVNQLYGDNVTALASYVKSQLASYAKTVASASNGAVKEANLVEAFERQYDLIFNSQVPYTEVVFAPSGNSFAVEYWPLLPFSRGSVHIQSANASDYPAINPNYFMFDQDAEAQVTVAQYIRKALGTAPLNSLVGEEVSPGLDVLPASASSATWTKWVKENYRTNYHPVGTTSMLPREKGGVVSPELKVYGTKNVRVVDASVLPFQLCGHLTSTLYAVAERASDLIKESY | 2.5 | 4.3 | – | –
Aspergillus niger glucose dehydrogenase (FAD-GDH) Ang-n3, SEQ ID NO: 2 (26 N-terminal residues deleted, Met-Asn-Thr-Thr-Thr- added) (Aspergillus niger CBS … (protein, otherwise wild type; pET30c, E. coli BL21(DE3), dialysed crude enzyme) YDFVIVGGGTSGLVVANRLSELSDVTVAVIEAGESALNNFNVSNVMGYSTAFGTEVDWAYQTENQTYAGGLQQTIRAGKALGGTSTINGMSYTRAEDVQIDNWEVLGNDGWNWKNLFQYYKKSEGFQVPTKDQIAHGASYNASYHGLNGPLKVGWPNSMTNSSVFPVLEQTFEKLGVQYNPDSEGGKMVGFTVHPDTLDREMNVREDAARAYYWPYEARSNLKIISNTRANKVIWANTTQGEAVAVGIEVTNAYGTETIYADKEVILSAGALRSPAILELSGIGNPDVLNKHNIPVKVNITTVGENLQDQTNNALSWEGVDTLTGLATFSVLPSVNQLYGDNVTALASYVKSQLASYAKTVASASNGAVKEANLVEAFERQYDLIFNSQVPYTEVVFAPSGNSFAVEYWPLLPFSRGSVHIQSANASDYPAINPNYFMFDQDAEAQVTVAQYIRKALGTAPLNSLVGEEVSPGLDVLPASASSATWTKWVKENYRTNYHPVGTTSMLPREKGGVVSPELKVYGTKNVRVVDASVLPFQLCGHLTSTLYAVAERASDLIKESY | 3.7 | 0.7 | – | –
Aspergillus niger glucose dehydrogenase (FAD-GDH) Ang-n2 variant E195K/Q196E/N368K/T522S, SEQ ID NO: 2 (Aspergillus niger CBS 513.88; E195K/N368K/Q196E/T522S) (protein, pET30c, E. coli BL21(DE3), crude extract) YDFVIVGGGTSGLVVANRLSELSDVTVAVIEAGESALNNFNVSNVMGYSTAFGTEVDWAYQTENQTYAGGLQQTIRAGKALGGTSTINGMSYTRAEDVQIDNWEVLGNDGWNWKNLFQYYKKSEGFQVPTKDQIAHGASYNASYHGLNGPLKVGWPNSMTNSSVFPVLKETFEKLGVQYNPDSEGGKMVGFTVHPDTLDREMNVREDAARAYYWPYEARSNLKIISNTRANKVIWANTTQGEAVAVGIEVTNAYGTETIYADKEVILSAGALRSPAILELSGIGNPDVLNKHNIPVKVNITTVGENLQDQTNNALSWEGVDTLTGLATFSVLPSVNQLYGDKVTALASYVKSQLASYAKTVASASNGAVKEANLVEAFERQYDLIFNSQVPYTEVVFAPSGNSFAVEYWPLLPFSRGSVHIQSANASDYPAINPNYFMFDQDAEAQVTVAQYIRKALGTAPLNSLVGEEVSPGLDVLPASASSATWTKWVKENYRSNYHPVGTTSMLPREKGGVVSPELKVYGTKNVRVVDASVLPFQLCGHLTSTLYAVAERASDLIKESY | 3.2 | 6.1 | – | –
Aspergillus niger glucose dehydrogenase (FAD-GDH) Ang-n1 variant E195K/Q196E, SEQ ID NO: 2 (Aspergillus niger CBS 513.88; E195K/Q196E) (protein, pET30c, E. coli BL21(DE3), crude extract) MDSPAHYDFVIVGGGTSGLVVANRLSELSDVTVAVIEAGESALNNFNVSNVMGYSTAFGTEVDWAYQTENQTYAGGLQQTIRAGKALGGTSTINGMSYTRAEDVQIDNWEVLGNDGWNWKNLFQYYKKSEGFQVPTKDQIAHGASYNASYHGLNGPLKVGWPNSMTNSSVFPVLKETFEKLGVQYNPDSEGGKMVGFTVHPDTLDREMNVREDAARAYYWPYEARSNLKIISNTRANKVIWANTTQGEAVAVGIEVTNAYGTETIYADKEVILSAGALRSPAILELSGIGNPDVLNKHNIPVKVNITTVGENLQDQTNNALSWEGVDTLTGLATFSVLPSVNQLYGDNVTALASYVKSQLASYAKTVASASNGAVKEANLVEAFERQYDLIFNSQVPYTEVVFAPSGNSFAVEYWPLLPFSRGSVHIQSANASDYPAINPNYFMFDQDAEAQVTVAQYIRKALGTAPLNSLVGEEVSPGLDVLPASASSATWTKWVKENYRTNYHPVGTTSMLPREKGGVVSPELKVYGTKNVRVVDASVLPFQLCGHLTSTLYAVAERASDLIKESY | 2.8 | 2.5 | – | –
